Drawing on patent publication US20260327314 (published 2026), this text covers EC50, binding result and Kd for ten molecules.

Experiment [1] addresses Human CD16A 158V (human). Briefly: ELISA.
Another experiment addresses T1, Human CD16B (human).
T1 chain: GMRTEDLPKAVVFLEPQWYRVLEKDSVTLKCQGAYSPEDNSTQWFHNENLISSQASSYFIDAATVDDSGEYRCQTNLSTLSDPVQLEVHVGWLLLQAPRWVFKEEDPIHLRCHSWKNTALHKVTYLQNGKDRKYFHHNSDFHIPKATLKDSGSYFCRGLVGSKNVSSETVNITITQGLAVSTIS
The experiment in a line: ELISA. For orientation: ELISA stands for enzyme-linked immunosorbent assay.

In experiment [2] the target is Human CD16A 158V (human). The experiment in a line: ELISA. The source holds these as a separate data set.
Target sequence in this assay (chain, as listed by the source): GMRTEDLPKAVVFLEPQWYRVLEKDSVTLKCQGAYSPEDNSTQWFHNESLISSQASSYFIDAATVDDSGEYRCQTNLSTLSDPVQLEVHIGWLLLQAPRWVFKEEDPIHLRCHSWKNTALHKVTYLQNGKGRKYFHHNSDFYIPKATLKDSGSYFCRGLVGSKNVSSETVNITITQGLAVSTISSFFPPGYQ
In experiment [3] the target is Human CD16A 158V (human). The experiment in a line: BLI. (In general: Biolayer interferometry detects binding as a change in optical thickness at a sensor tip.)
Experiment [4] has as its target Human CD16A 158F (human). Briefly: BLI.
Experiment [5] concerns the target Human CD16A 158F (human). Briefly: ELISA.
Target sequence in this assay (chain, as listed by the source): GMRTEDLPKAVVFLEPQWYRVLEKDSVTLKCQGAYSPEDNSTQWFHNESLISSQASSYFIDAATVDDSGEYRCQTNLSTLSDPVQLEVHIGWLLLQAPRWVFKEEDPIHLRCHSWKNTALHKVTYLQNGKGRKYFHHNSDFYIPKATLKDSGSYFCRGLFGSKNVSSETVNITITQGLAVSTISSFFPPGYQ

Read-outs that look alike come from different tables or passages of the source.

B1: BM130-92 (Margetuximab) (antibody)
chain 1: QVQLQQSGPELVKPGASLKLSCTASGFNIKDTYIHWVKQRPEQGLEWIGRIYPTNGYTRYDPKFQDKATITADTSSNTAYLQVSRLTSEDTAVYYCSRWGGDGFYAMDYWGQGASVTVSSASTKGPSVFPLAPSSKSTSGGTAALGCLVKDYFPEPVTVSWNSGALTSGVHTFPAVLQSSGLYSLSSVVTVPSSSLGTQTYICNVNHKPSNTKVDKRVEPKSCDKTHTCPPCPAPELVGGPSVFLLPPKPKDTLMISRTPEVTCVVVDVSHEDPEVKFNWYVDGVEVHNAKTKPPEEQYNSTLRVVSVLTVLHQDWLNGKEYKCKVSNKALPAPIEKTISKAKGQPREPQVYTLPPSRDELTKNQVSLTCLVKGFYPSDIAVEWESNGQPENNYKTTPLVLDSDGSFFLYSKLTVDKSRWQQGNVFSCSVMHEALHNHYTQKSLSLSPGK
chain 2: DIVMTQSHKFMSTSVGDRVSITCKASQDVNTAVAWYQQKPGHSPKLLIYSASFRYTGVPDRFTGSRSGTDFTFTISSVQAEDLAVYYCQQHYTTPPTFGGGTKVEIKRTVAAPSVFIFPPSDEQLKSGTASVVCLLNNFYPREAKVQWKVDNALQSGNSQESVTEQDSKDSTYSLSSTLTLSKADYEKHKVYACEVTHQGLSSPVTKSFNRGEC
Broadly, the EC50 is the midpoint of the concentration-response curve. In the experiment with Human CD16A 158V [1], B1 displayed an EC50 of 45.1 nM. For the same molecule, in the experiment with Human CD16B, the binding result is reported as “no binding”.

B2: CD16-VH-RM72 (antibody)
chain: EVQLVESGGGLVQPGGSLRLSCAASGFTFSNYGMSWVRQAPGKGLEWIGSIYYSGQTNYNPSLKSLVTISRDNSKNTLYLQMNSLRAEDTATYYCARESIDYWGQGTLVTVSS
The Kd is the equilibrium constant for the complex coming apart. As for B2, the EC50 stood at 1.86 nM with Human CD16A 158V [2] and 1.89 nM with Human CD16A 158F [5]. The Kd worked out at 4.38 nM in the experiment with Human CD16A 158V [3] and 4.58 nM with Human CD16A 158F [4].

B3: CD16-VH-RM73 (antibody)
chain: EVQLVESGGGLVQPGGSLRLSCAASGFTFSNYGMSWVRQAPGKGLEWIGSIYYSGTTNYNPSLKSLVTISRDNSKNTLYLQMNSLRAEDTATYYCARESIDYWGQGTLVTVSS
For B3, the EC50 amounted to 4.2 nM in the experiment with Human CD16A 158V [2] and 3.29 nM with Human CD16A 158F [5]. Moreover, the Kd was determined as 8.2 nM with Human CD16A 158V [3] and 2.41 nM with Human CD16A 158F [4].

B4: CD16-VH-RM75 (antibody)
chain: EVQLVESGGGLVQPGGSLRLSCAASGFTFSNYGMSWVRQAPGKGLEWIGSIYYSGDTNYNPSLKSLVTISRDNSKNTLYLQMNSLRAEDTATYYCARESIDYWGQGTLVTVSS
Turning to B4, the EC50 with Human CD16A 158V [2] worked out at 2.06 nM; with Human CD16A 158F [5], 3.04 nM. Besides, the Kd with Human CD16A 158V [3] amounted to 3.51 nM; in the experiment with Human CD16A 158F [4], 2.62 nM.

B5: BM156-01 (antibody)
chain: EVQLVESGGGLVQPGGSLRLSCAASGFTFSNYGMSWVRQAPGKGLEWIGSIYYSGSTNYNPSLKSLVTISRDNSKNTLYLQMNSLRAEDTATYYCARESIDYWGQGTLVTVSS
Take B5: the EC50 with Human CD16A 158V [2] worked out at 4.57 nM; with Human CD16A 158F [5], 7.66 nM. Besides, the Kd in the experiment with Human CD16A 158V [3] was determined as 20.6 nM; with Human CD16A 158F [4] it was 5.15 nM.

B6: CD16-VH-RM82 (antibody)
chain: EVQLVESGGGLVQPGGSLRLSCAASGFTFSNYGMSWVRQAPGKGLEWIGSIYYSVSTNYNPSLKSLVTISRDNSKNTLYLQMNSLRAEDTATYYCARESIDYWGQGTLVTVSS
As to B6, the EC50 with Human CD16A 158V [2] was determined as 3.2 nM; in the experiment with Human CD16A 158F [5], 3.29 nM. In the experiment with Human CD16A 158F [4], this molecule showed a Kd of 5.26 nM.

B7: CD16-VH-RM80 (antibody)
chain: EVQLVESGGGLVQPGGSLRLSCAASGFTFSNYGMSWVRQAPGKGLEWIGSIYYDGSTNYNPSLKSLVTISRDNSKNTLYLQMNSLRAEDTATYYCARESIDYWGQGTLVTVSS
For B7, the EC50 in the experiment with Human CD16A 158V [2] was 3.32 nM; with Human CD16A 158F [5], 3.03 nM. In the experiment with Human CD16A 158F [4], this molecule showed a Kd of 3.99 nM.

B8: CD16-VH-RM76 (antibody)
chain: EVQLVESGGGLVQPGGSLRLSCAASGFTFSNYGMSWVRQAPGKGLEWIGSIYYSGETNYNPSLKSLVTISRDNSKNTLYLQMNSLRAEDTATYYCARESIDYWGQGTLVTVSS
For the molecule B8, the EC50 with Human CD16A 158V [2] is 2.71 nM; with Human CD16A 158F [5], 2.2 nM. Besides, the Kd with Human CD16A 158V [3] is 16.2 nM; with Human CD16A 158F [4], 6.06 nM.

B9: CD16-VH-RM81 (antibody)
chain: EVQLVESGGGLVQPGGSLRLSCAASGFTFSNYGMSWVRQAPGKGLEWIGSIYYTGSTNYNPSLKSLVTISRDNSKNTLYLQMNSLRAEDTATYYCARESIDYWGQGTLVTVSS
In the case of B9, the EC50 with Human CD16A 158V [2] worked out at 1.8 nM; with Human CD16A 158F [5], 1.25 nM. The Kd in the experiment with Human CD16A 158V [3] came out at 2.69 nM; in the experiment with Human CD16A 158F [4] it was 2.45 nM.

B10: CD16-VH-RM77 (antibody)
chain: EVQLVESGGGLVQPGGSLRLSCAASGFTFSNYGMSWVRQAPGKGLEWIGSIYYNGSTNYNPSLKSLVTISRDNSKNTLYLQMNSLRAEDTATYYCARESIDYWGQGTLVTVSS
With B10, the figures for the EC50 in the experiment with Human CD16A 158V [2] and with Human CD16A 158F [5] were 1.42 nM and 1.21 nM, respectively. The Kd worked out at 5.31 nM with Human CD16A 158V [3] and 1.24 nM in the experiment with Human CD16A 158F [4].
